To fix the notation:
B1: Hammerhead Ribozyme (parent)
chain: ACCGGAUGUGCUUUCCGGUCUGAUGAGUCCGUGAGGACGAAACAG

The variants in the data set derive from B1. Nature of the data set: self-cleavage, relative activity (ratio to wild type); higher = more cleavage; co-transcriptional.
Regarding ACCGGAUGUGCAUUCCGGUCUGAUGAGUCCUUGAGGACGAAACAG [U12A G31U], the self-cleavage turned out to be 1.12.
In the case of ACCGGAUGUGUUUUCCGGUCUGAUGAGUCCGCGAGGACGAAACAG [C11U U32C], the self-cleavage came to 0.964.
The result for ACCGGAUGUGUUUUCCGGUCUGAUGAGUCCGAGAGGACGAAACAG [C11U U32A] reads 0.889; that for ACCGGAUGUGUUUUCCGGUCUGAUGAGUCCGGGAGGACGAAACAG [C11U U32G], 0.799.
Under ACCGGAUGUGUUUGCCGGUCUGAUGAGUCCGUGAGGACGAAACAG [C11U U14G] stands 0.765; under ACCGGAUGUGUUUACCGGUCUGAUGAGUCCGUGAGGACGAAACAG [C11U U14A], 0.998.
With ACCGGAUGUGUUUCCCGGUCUGAUGAGUCCGUGAGGACGAAACAG [C11U U14C], the self-cleavage was determined as 0.771.
The result for ACCGGAUGUGUUUUCCGGUCUGACGAGUCCGUGAGGACGAAACAG [C11U U24C] reads 1.08; that for ACCGGAUGUGUUUUCCGGUCUGAAGAGUCCGUGAGGACGAAACAG [C11U U24A], 1.2.
The result for ACCGGAUGUGUUUUCCGGUCUGAGGAGUCCGUGAGGACGAAACAG [C11U U24G] reads 1.02; that for ACCGGAUGUGCAUUCCGAUCUGAUGAGUCCGUGAGGACGAAACAG [U12A G18A], 0.726; that for ACCGGAUGUGCAUUCCGUUCUGAUGAGUCCGUGAGGACGAAACAG [U12A G18U], 0.888.
The result for ACCGGAUGUGCAUUCCGCUCUGAUGAGUCCGUGAGGACGAAACAG [U12A G18C] reads 0.565.
For ACCGGAUGUGCAUUCCGGUCUGUUGAGUCCGUGAGGACGAAACAG [U12A A23U], the self-cleavage came to 0.317.
Under ACCGGAUGUGCAUUCCGGUCUGCUGAGUCCGUGAGGACGAAACAG [U12A A23C] stands 0.366.
The result for ACCGGAUGUGCAUUCCGGUCUGGUGAGUCCGUGAGGACGAAACAG [U12A A23G] reads 0.394; that for ACCGGAUGUGCAUUCCGGUCUGAUGAGUCCGUGAGGACGCAACAG [U12A A40C], 0.556; that for ACCGGAUGUGCAUUCCGGUCUGAUGAGUCCGUGAGGACGUAACAG [U12A A40U], 0.32.
On to ACCGGAUGUGCAUUCCGGUCUGAUGAGUCCGUGAGGACGGAACAG [U12A A40G], for which the self-cleavage came to 0.315.
The result for ACCGGAUGUGCAUUCAGGUCUGAUGAGUCCGUGAGGACGAAACAG [U12A C16A] reads 1.03; that for ACCGGAUGUGCAUUCGGGUCUGAUGAGUCCGUGAGGACGAAACAG [U12A C16G], 0.764.
Under ACCGGAUGUGCAUUCUGGUCUGAUGAGUCCGUGAGGACGAAACAG [U12A C16U] stands 1.1; under ACCGGAUGUGCAUUCCGGUCUGAUAAGUCCGUGAGGACGAAACAG [U12A G25A], 0.303.
Under ACCGGAUGUGCAUUCCGGUCUGAUUAGUCCGUGAGGACGAAACAG [U12A G25U] stands 0.331.
Turning to ACCGGAUGUGCAUUCCGGUCUGAUCAGUCCGUGAGGACGAAACAG [U12A G25C], the self-cleavage was 0.224.
The result for ACCGGAUGUGCAUUCCGGUCUCAUGAGUCCGUGAGGACGAAACAG [U12A G22C] reads 0.236; that for ACCGGAUGUGCAUUCCGGUCUAAUGAGUCCGUGAGGACGAAACAG [U12A G22A], 0.261; that for ACCGGAUGUGCAUUCCGGUCUUAUGAGUCCGUGAGGACGAAACAG [U12A G22U], 0.328.
The result for ACCGGAUGUGCAUUCCCGUCUGAUGAGUCCGUGAGGACGAAACAG [U12A G17C] reads 0.423.
Under ACCGGAUGUGCAUUCCUGUCUGAUGAGUCCGUGAGGACGAAACAG [U12A G17U] stands 0.827; under ACCGGAUGUGCAUUCCAGUCUGAUGAGUCCGUGAGGACGAAACAG [U12A G17A], 0.77; under ACCGGAUGUGUUUUCCGGUCUGAUGAGUCCGUGAGGACGAAACAC [C11U G45C], 0.44.
For ACCGGAUGUGUUUUCCGGUCUGAUGAGUCCGUGAGGACGAAACAA [C11U G45A], the self-cleavage came out at 0.515.
The result for ACCGGAUGUGUUUUCCGGUCUGAUGAGUCCGUGAGGACGAAACAU [C11U G45U] reads 0.497; that for ACCGGAUGUGUUUUCCGGGCUGAUGAGUCCGUGAGGACGAAACAG [C11U U19G], 0.329; that for ACCGGAUGUGUUUUCCGGACUGAUGAGUCCGUGAGGACGAAACAG [C11U U19A], 0.32.
Under ACCGGAUGUGUUUUCCGGCCUGAUGAGUCCGUGAGGACGAAACAG [C11U U19C] stands 0.484; under ACCGGAUGUGCACUCCGGUCUGAUGAGUCCGUGAGGACGAAACAG [U12A U13C], 1.05; under ACCGGAUGUGCAAUCCGGUCUGAUGAGUCCGUGAGGACGAAACAG [U12A U13A], 1.23.
Consider ACCGGAUGUGCAUUCCGGUCUGAUGAGUGCGUGAGGACGAAACAG [U12A C29G], for which the self-cleavage was determined as 0.721.
The result for ACCGGAUGUGCAUUCCGGUCUGAUGAGUACGUGAGGACGAAACAG [U12A C29A] reads 0.634; that for ACCGGAUGUGCAUUCCGGUCUGAUGAGUUCGUGAGGACGAAACAG [U12A C29U], 0.881; that for ACCGGAUGUGUUUUCCGGUCUGAUGAGUCCGUGAGCACGAAACAG [C11U G36C], 0.499.
Under ACCGGAUGUGUUUUCCGGUCUGAUGAGUCCGUGAGUACGAAACAG [C11U G36U] stands 0.669.
The result for ACCGGAUGUGUUUUCCGGUCUGAUGAGUCCGUGAGAACGAAACAG [C11U G36A] reads 0.607; that for ACCGGAUGUGUUUUCCGGUCAGAUGAGUCCGUGAGGACGAAACAG [C11U U21A], 0.697.
On to ACCGGAUGUGUUUUCCGGUCCGAUGAGUCCGUGAGGACGAAACAG [C11U U21C], for which the self-cleavage came out at 0.561.
Under ACCGGAUGUGUUUUCCGGUCGGAUGAGUCCGUGAGGACGAAACAG [C11U U21G] stands 0.563; under ACCGGAUGUGCAUUCCGGUCUGAUGAGUCCGUGAGGACGAAACAA [U12A G45A], 0.678.
Turning to ACCGGAUGUGCAUUCCGGUCUGAUGAGUCCGUGAGGACGAAACAU [U12A G45U], the self-cleavage was found to be 0.67.
The result for ACCGGAUGUGCAUUCCGGUCUGAUGAGUCCGUGAGGACGAAACAC [U12A G45C] reads 0.602; that for ACCGGAUGUGCAUUCCGGUCUGAUGAGUCCGUCAGGACGAAACAG [U12A G33C], 1.37.
Regarding ACCGGAUGUGCAUUCCGGUCUGAUGAGUCCGUAAGGACGAAACAG [U12A G33A], the self-cleavage came to 1.08.
Under ACCGGAUGUGCAUUCCGGUCUGAUGAGUCCGUUAGGACGAAACAG [U12A G33U] stands 1.03; under ACCGGAUGUGUUUUCCGGUCUGAUGAGUCCGUGAGGACUAAACAG [C11U G39U], 0.3.
Under ACCGGAUGUGUUUUCCGGUCUGAUGAGUCCGUGAGGACAAAACAG [C11U G39A] stands 0.383; under ACCGGAUGUGUUUUCCGGUCUGAUGAGUCCGUGAGGACCAAACAG [C11U G39C], 0.389.

For the origin of these results see the RNAGym collection of RNA variant scans (doi:10.7554/elife.80360).
